# B1: CTD-truncated SepCysE of M. jannaschii (domain or fragment, Methanocaldococcus jannaschii, UniProt Q58876 1-110, looked up)
# chain: MRVEYSKDLIRKGISTISQLKKAKIRVEKDDKKISYKDAKPGKIDVNEFKKAIYLLIEADDFLYKKAPKHELNEEEAKEFCKLIIKCQEHLNKILANFGFEFEEKEIDEG
# notes: also called SepCysE(CTD)-truncated; source: E. coli B834(DE3) plus pRARE2, purified within the transsulfursome (same procedure as the wild type)
# B2: SepCysE (SepRS/SepCysS pathway enhancer), Methanocaldococcus jannaschii (natural protein)
# chain: MRVEYSKDLIRKGISTISQLKKAKIRVEKDDKKISYKDAKPGKIDVNEFKKAIYLLIEADDFLYKKAPKHELNEEEAKEFCKLIIKCQEHLNKILANFGFEFEEKEIDEGALYIVSNKKLFKKLKNKNPNLKVVCTEGMLDIEDMRAIGVPEKALEGLKKKVEIARKNVERFIEKYKPEKIFVVVEDDKDELLYLRAKNLYNAEKLDADEILD
# notes: SepCysE of Methanocaldococcus jannaschii; wild type
# B3: SepCysE(del_linker1) of M. jannaschii, 10 residues of linker1 truncated (natural protein, Methanocaldococcus jannaschii)
# chain: MRVEYSKDLIRKGISTISQLKKAKSYKDAKPGKIDVNEFKKAIYLLIEADDFLYKKAPKHELNEEEAKEFCKLIIKCQEHLNKILANFGFEFEEKEIDEGALYIVSNKKLFKKLKNKNPNLKVVCTEGMLDIEDMRAIGVPEKALEGLKKKVEIARKNVERFIEKYKPEKIFVVVEDDKDELLYLRAKNLYNAEKLDADEILD
# notes: source: E. coli B834(DE3) plus pRARE2, purified within the transsulfursome (same procedure as the wild type)
# B4: Sep-tRNA:Cys-tRNA synthase (SepCysS), Methanocaldococcus jannaschii (enzyme)
# chain: DKYKNLTRSLTREFINLNPIQRGGILPKEAKKAVYEYWDGYSVCDYCHGRLDEVTCPPIKDFLEDIAKFLNMDCARPTHGAREGKFIVMHAICKEGDYVVLDKNAHYTSYVAAERAKLNVAEVGYEEEYPTYKINLEGYKEVIDNLEDKGKNVGLILLTHVDGEYGNLNDAKKVGKIAKEKGIPFLLNCAYTVGRMPVNGKEVKADFIVASGHKSMAASAPCGILAFSEEFSDKITKTSEKFPVKEIEMLGCTSRGLPIVTLMASFPHVVERVKKWDEELKKTRYVVDELEKIGFKQLGIKPKEHDLIKFETPVLDEIAKKDKRRGFFFYDELKKRGIGGIRAGVTKEIKMSVYGLEWEQVEYVVNAIKEIVESCK
# modifications: PLP covalently bound to the side chain of Lys234
# notes: Sep-tRNA:Cys-tRNA synthase (SepCysS) of Methanocaldococcus jannaschii; wild type; large domain Gly43-Lys295, small domain Trp296-Lys396; Homodimer
# B5: O-phosphoseryl-tRNA synthetase (SepRS), Methanocaldococcus jannaschii (enzyme)
# chain: MRFDIKKVLELAEKDFETAWRETRALIKDKHIDNKYPRLKPVYGKPHPVMETIERLRQAYLRMGFEEMINPVIVDEMEIYKQFGPEAMAVLDRCFYLAGLPRPDVGLGNEKVEIIKNLGIDIDEEKKERLREVLHLYKKGAIDGDDLVFEIAKALNVSNEMGLKVLETAFPEFKDLKPESTTLTLRSHMTSGWFITLSSLIKKRKLPLKLFSIDRCFRREQREDRSHLMSYHSASCVVVGEDVSVDDGKVVAEGLLAQFGFTKFKFKPDEKKSKYYTPETQTEVYAYHPKLGEWIEVATFGVYSPIALAKYNIDVPVMNLGLGVERLAMIIYGYEDVRAMVYPQFYEYRLSDRDIAGMIRVDKVPILDEFYNFANELIDICIANKDKESPCSVEVKREFNFNGERRVIKVEIFENEPNKKLLGPSVLNEVYVYDGNIYGIPPTFEGVKEQYIPILKKAKEEGVSTNIRYIDGIIYKLVAKIEEALVSNVDEFKFRVPIVRSLSDINLKIDELALKQIMGENKVIDVRGPVFLNAKVEIK
# notes: O-phosphoseryl-tRNA synthetase (SepRS) of Methanocaldococcus jannaschii; wild type; source: E. coli B834(DE3) plus pRARE2, purified (heat treatment 75 °C, HisTrap, Heparin, Superdex 200)
# Legend:
# [1] = target: T1, SepRS (SepRS-SepCysE-SepCysS ternary complex, transsulfursome) (Methanocaldococcus jannaschii, UniProt Q59054); experiment: X-ray crystal structure, […] Å; assay type: binding; conditions: 10 mM ATP in crystallisation, pH 7.0; active site, Arg228, Glu230, His237, Tyr240; bent ATP
# T1 construct: gene sepS; recombinant from E. coli B834(DE3), pET-15b; SepRS tetramer; only SepRS and SepCysE N-helix (Met1-Lys24) visible; with SepRS/SepCysS pathway enhancer SepCysE; O-phospho-L-seryl-tRNA:Cys-tRNA synthase
# [2] = target: T2, SepCysS (SepCysE-SepCysS-tRNA^Cys complex) (Methanocaldococcus jannaschii, UniProt Q59072); experiment: X-ray crystal structure, […] Å; assay type: binding; conditions: covalent; Lys234; crystallised at pH 5.0 with tRNA^Cys
# T2 construct: gene pscS; recombinant, coexpressed with SepCysE in E. coli B834(DE3); SepCysS homodimer; co-crystal with tRNA^Cys; with SepRS/SepCysS pathway enhancer SepCysE
# T2 sequence (Q59072 whole entry, one chain of several): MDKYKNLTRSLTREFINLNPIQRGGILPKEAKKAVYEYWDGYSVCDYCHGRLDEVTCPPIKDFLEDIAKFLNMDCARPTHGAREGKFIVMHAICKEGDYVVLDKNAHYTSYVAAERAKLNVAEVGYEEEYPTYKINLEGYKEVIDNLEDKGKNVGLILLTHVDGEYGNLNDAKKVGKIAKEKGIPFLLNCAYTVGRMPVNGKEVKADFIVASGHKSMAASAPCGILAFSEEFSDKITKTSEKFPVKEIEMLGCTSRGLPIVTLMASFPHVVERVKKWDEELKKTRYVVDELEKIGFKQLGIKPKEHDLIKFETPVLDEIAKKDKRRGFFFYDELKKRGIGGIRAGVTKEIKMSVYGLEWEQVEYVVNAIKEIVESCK
# [3] = target: B5; experiment: SEC-SAXS; SepCysE(CTD)-truncated transsulfursome in solution; Superdex 200 Increase 10/300 GL, room temperature; scattering compared with models from the crystal structures; conditions: both partners purified
# [4] = target: B5; experiment: negative stain electron microscopy; purified wild type and del_linker1 transsulfursome adsorbed on carbon-coated grids; 20 mM HEPES-KOH pH 8.0, 200 mM KCl, 5 mM MgCl2; uranyl formate; class averaging; conditions: both partners purified
# [5] = target: the molecule itself; experiment: crystal structure; SepCysE-SepCysS mixed with tRNA^Cys at a molar ratio of 1:1.2, protein 16 mg/ml; 0.1 M MES pH 5.0, 2.4 M ammonium sulfate; 2.6 Å; PDB 5X6B
# [6] = target: the molecule itself; experiment: crystal structure; 50 μM SepRS-SepCysE-SepCysS(del_RRF), 30 μM tRNA^Cys, 10 mM ATP; 0.1 M Tris-HCl pH 7.0, 0.3 M ammonium sulfate, 36% MPD; 3.10 Å; only SepRS and the N-helix of SepCysE visible; PDB 5X6C
molecule,measurement,setting,value
Nc1ncnc2c1ncn2[C@@H]1O[C@H](COP(=O)(O)OP(=O)(O)OP(=O)(O)O)[C@@H](O)[C@H]1O [ATP],"X-ray crystal structure, 3.1 Å",[1],ATP was observed in the active sites of SepRS.
Cc1ncc(COP(=O)(O)O)c(C=O)c1O [pyridoxal-5′-phosphate],"X-ray crystal structure, 2.6 Å",[2],PLP was covalently bound to the side chain of the conserved Lys234
B1,binding result,[3],binds
B2,binding result,[4],binds
same,stoichiometry N,[5],2
B3,binding result,[4],binds
B4,stoichiometry N,[5],2
B5,stoichiometry N,[6],4
